B1: Soluble monomeric B7H6-His (domain or fragment)
chain: DLKVEMMAGGTQITPLNDNVTIFCNIFYSQPLNITSMGITWFWKSLTFDKEVKVFEFFGDHQEAFRPGAIVSPWRLKSGDASLRLPGIQLEEAGEYRCEVVVTPLKAQGTVQLEVVASPASRLLLDQVGMKENEDKYMCESSGFYPEAINITWEKQTQKFPHPIEISEDVITGPTIKNMDGTFNVTSCLKLNSSQEDPGTVYQCVVRHASLHTPLRSNFTLTAARHSLSETEKTDNFS

How the values were obtained:
NKp30-Fc (human) = NKp30-Fc (human) (UniProt O14931); assay: BLI
CC3-Fc (human) = CC3-Fc (human) (UniProt O14931); assay: BLI

Molecule | Kd (NKp30-Fc (human)) | Kd (CC3-Fc (human))
Soluble monomeric B7H6-His (from UniProt Q68D85 25-262) (domain or fragment) | 1300 nM | –
B1 | – | 680 nM

From PMC8626535
